FRET efficiency data for four substances are collected here from publication PMC10639101.

The target in the experiment is SecYEG labeled at SecY residue 292 with AF488 (E. coli) (UniProt P0AGA2). The experiment can be described thus: FRET or BRET.
Substance “SecA-PhoA chimera labeled at PhoA residue 22 with AF647” had an FRET efficiency of 0.46.
In turn, “SecA-PhoA chimera labeled at PhoA residue 2 with AF647” registered an FRET efficiency of 0.25.
In the case of “SecA-PhoA chimera labeled at PhoA residue 37 with AF647”, the FRET efficiency stood at 0.24.
The figure for “SecA-PhoA chimera labeled at PhoA residue 45 with AF647” is 0.3.
